# Results as given in patent US20200102399A1, “Methods of Treating Peripheral T Cell Lymphoma Using Anti-CD30 Antibody Drug Conjugate Therapy” (Seattle Genetics, Inc., priority 2018, published 2020).
# Tested on: newly diagnosed CD30-positive mature T- and NK-cell neoplasms, including sALCL
# Assay: Phase 1 study SGN35-011: brentuximab vedotin with CHOP or CHP chemotherapy
# Type: in vivo, human
# Conditions: given concomitantly with CHP
# From the text: The clinical safety and activity of brentuximab vedotin administered sequentially and concurrently with multiagent chemotherapy were previously evaluated in a phase 1 study in patients with newly diagnosed CD30-positive mature T- and NK-cell neoplasms, including sALCL (Study SGN35-011). This phase 1 study was implemented to determine the safety and activity of sequential and combination frontline treatment approaches of brentuximab vedotin with CHOP or CHP chemotherapy. The maximum tolerated dose of brentuximab vedotin was 1.8 mg/kg given concomitantly with CHP. At an interim analysis in this study (data presented at the T-Cell Lymphoma Forum 2012), 20 patients in this study had been treated with brentuximab vedotin 1.2 or 1.8 mg/kg given concomitantly with CHP for 6 cycles, followed by continued brentuximab vedotin every 3 weeks for up to 10 additional cycles for responding patients.
substance,measurement,value
brentuximab vedotin,maximum tolerated dose,1.8 mg/kg
